Data: patent publication US20210140973A1 (NITTO BOSEKI, published 2021)

Experiments:
Test in all cases: Western blot: E. coli lysate with the GST-tagged peptide, SDS-PAGE, PVDF membrane, POD-labelled antibody diluted 1000-fold, ECL
[1] = molecular target: T1, GST-tagged peptide H7 (positions 56 to 327 of the human IgG4 heavy chain constant region) (human, UniProt P01861 56-325 = IgG part)
T1 construct: E. coli lysate on Western blot; not shown: GST tag (glutathione S-transferase) linked to the N terminal, expressed from vector pGEX-6P-1
Description: (§1) Based on the designed amino acid sequences, base sequences suitable for expressing protein in E. coli were designed according to the protocol of GenScript Corporation, thereby preparing vector pGEX-6P-1 (GE Healthcare Bio-Sciences Corp.) to which the respective base sequences are inserted. The prepared expression plasmid was introduced to E. coli BL 21 strain, thereby obtaining a transformant. The transformant was cultured by an ordinary method and a protein expression was induced by IPTG. After the cells were collected by centrifugation, the cells were dissolved with an ordinary lysis solution, and subjected to ultrasonication. 6 μL of an SDS sample buffer solution was added to 6 μL of the obtained lysate. The respective prepared samples were subjected to a heat treatment at 95° C. for 5 minutes. 10 μL of the E. coli disrupted sample was added to each well of 5 to 20% electrophoresis gel (Atto Corportation) to which an SDS electrophoresis buffer solution was added. Similarly, a molecular weight standard (Bio-Rad Laboratories, Inc.) was added to each well and electrophoresed. After completing the electrophoresis, the electrophoresis gel was transcribed to a PVDF membrane (Millipore Corporation) with a transfer buffer solution. The PVDF membrane was immersed in a membrane blocking buffer solution, and then shaking was carried out at room temperature for 30 minutes. Amino groups of MaI4-08, MaI4-09, and MaI4-05-produced antibodies were subjected to a POD labeling treatment with a POD labeling kit (Dojindo Molecular Technologies, Inc.). The obtained labeled antibodies each were diluted 1000-fold by PBST. After the PVDF membrane was cleaned with PBST, the antibody solutions prepared each were added to the PVDF membrane, and then the reaction was performed at room temperature for 1 hour. After the PVDF membrane was cleaned by PBST, a signal was detected with ECL Prime Western Blotting Detection Reagents (GE Healthcare) with Image Quant Las4000.

[2] = molecular target: T2, GST-tagged peptide H37 (H10 with R289K and L325P) (human, UniProt P01861 221-324 = IgG part)
T2 construct: not shown: N-terminal GST tag (from vector pGEX-6P-1) and any vector linker
T2 chain: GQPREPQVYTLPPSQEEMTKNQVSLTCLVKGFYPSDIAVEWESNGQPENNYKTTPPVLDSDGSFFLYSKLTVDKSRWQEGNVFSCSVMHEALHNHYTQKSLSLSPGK
Description: as §1

[3] = molecular target: T3, GST-tagged peptide H6 (positions 1 to 55 of the human IgG4 heavy chain constant region) (human, UniProt P01859 1-55 = IgG part)
T3 construct: E. coli lysate on Western blot; not shown: GST tag (glutathione S-transferase) linked to the N terminal, expressed from vector pGEX-6P-1
T3 sequence (P01859 1-55): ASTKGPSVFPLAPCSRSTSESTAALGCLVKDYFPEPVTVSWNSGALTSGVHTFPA
Description: as §1

[4] = molecular target: T4, GST-tagged peptide H9 (positions 166 to 327 of the human IgG4 heavy chain constant region) (human, UniProt P01861 166-325 = IgG part)
T4 construct: E. coli lysate on Western blot; not shown: GST tag (glutathione S-transferase) linked to the N terminal, expressed from vector pGEX-6P-1
T4 sequence (P01861 other isoform, or with tags, fused parts or gaps): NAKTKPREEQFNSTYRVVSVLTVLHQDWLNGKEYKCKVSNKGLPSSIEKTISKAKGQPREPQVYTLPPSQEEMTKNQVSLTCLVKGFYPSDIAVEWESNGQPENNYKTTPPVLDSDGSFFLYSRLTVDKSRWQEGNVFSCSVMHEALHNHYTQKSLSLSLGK
Description: as §1

[5] = molecular target: T5, GST-tagged peptide H4 (positions 1 to 165 of the human IgG4 heavy chain constant region) (human, UniProt P01861 1-165 = IgG part)
T5 construct: E. coli lysate on Western blot; not shown: GST tag (glutathione S-transferase) linked to the N terminal, expressed from vector pGEX-6P-1
T5 sequence (P01861 1-165): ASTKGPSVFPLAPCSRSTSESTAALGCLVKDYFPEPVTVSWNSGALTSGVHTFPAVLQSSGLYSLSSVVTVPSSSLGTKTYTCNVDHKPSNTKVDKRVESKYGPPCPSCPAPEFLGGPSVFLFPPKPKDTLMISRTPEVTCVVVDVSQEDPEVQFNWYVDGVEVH
Description: as §1

[6] = molecular target: T6, GST-tagged peptide H5 (positions 1 to 110 of the human IgG4 heavy chain constant region) (human, UniProt P01861 1-110 = IgG part)
T6 construct: E. coli lysate on Western blot; not shown: GST tag (glutathione S-transferase) linked to the N terminal, expressed from vector pGEX-6P-1
T6 sequence (P01861 1-110): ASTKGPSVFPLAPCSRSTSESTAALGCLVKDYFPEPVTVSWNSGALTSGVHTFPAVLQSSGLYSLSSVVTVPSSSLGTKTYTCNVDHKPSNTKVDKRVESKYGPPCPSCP
Description: as §1

H-39 = molecular target: T7, H-39
T7 construct: not shown: N-terminal GST tag and the vector-coded linker of pGEX-6P-1
T7 chain: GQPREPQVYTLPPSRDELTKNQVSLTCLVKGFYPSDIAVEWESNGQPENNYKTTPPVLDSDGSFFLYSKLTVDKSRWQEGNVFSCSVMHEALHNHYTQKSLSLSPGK
Description: as §1

[7] = molecular target: T8, GST-tagged peptide H2 (positions 1 to 274 of the human IgG4 heavy chain constant region) (human, UniProt P01861 1-274 = IgG part)
T8 construct: E. coli lysate on Western blot; not shown: GST tag (glutathione S-transferase) linked to the N terminal, expressed from vector pGEX-6P-1
T8 sequence (P01861 1-274): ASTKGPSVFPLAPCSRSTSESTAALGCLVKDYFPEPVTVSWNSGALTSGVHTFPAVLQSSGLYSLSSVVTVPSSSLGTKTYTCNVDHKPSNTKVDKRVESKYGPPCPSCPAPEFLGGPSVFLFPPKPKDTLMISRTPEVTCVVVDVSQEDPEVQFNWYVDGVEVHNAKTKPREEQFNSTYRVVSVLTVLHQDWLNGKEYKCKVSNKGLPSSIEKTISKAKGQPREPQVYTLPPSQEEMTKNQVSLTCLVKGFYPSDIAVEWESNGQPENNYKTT
Description: as §1

[8] = molecular target: T9, GST-tagged peptide H31 (H10 with arginine for glutamine at position 235) (human, UniProt P01861 221-325 = IgG part)
T9 construct: not shown: GST tag (glutathione S-transferase) linked to the N terminal, expressed from vector pGEX-6P-1
T9 chain: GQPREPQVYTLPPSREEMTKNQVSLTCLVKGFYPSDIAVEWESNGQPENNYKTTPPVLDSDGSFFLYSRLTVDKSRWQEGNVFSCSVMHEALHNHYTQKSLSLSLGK
Description: as §1

[9] = molecular target: T10, GST-tagged peptide H3 (positions 1 to 220 of the human IgG4 heavy chain constant region) (human, UniProt P01861 1-220 = IgG part)
T10 construct: E. coli lysate on Western blot; not shown: GST tag (glutathione S-transferase) linked to the N terminal, expressed from vector pGEX-6P-1
T10 sequence (P01861 1-220): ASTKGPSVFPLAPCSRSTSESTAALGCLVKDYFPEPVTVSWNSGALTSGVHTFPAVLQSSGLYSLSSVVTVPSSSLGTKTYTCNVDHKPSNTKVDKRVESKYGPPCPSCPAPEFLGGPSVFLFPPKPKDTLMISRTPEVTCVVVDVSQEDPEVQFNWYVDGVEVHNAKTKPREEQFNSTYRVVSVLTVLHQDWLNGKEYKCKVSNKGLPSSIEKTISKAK
Description: as §1

[10] = molecular target: T11, GST-tagged peptide H10 (positions 221 to 327 of the human IgG4 heavy chain constant region, CH3 region) (human, UniProt P01861 221-325 = IgG part)
T11 construct: E. coli lysate on Western blot; not shown: GST tag (glutathione S-transferase) linked to the N terminal, expressed from vector pGEX-6P-1
Description: as §1

B1: MaI4-08-produced antibody (antibody, IgG1, V domains shown)
VH: EVQLQQSGPELVKPGTSVKMSCKASGYIFTSYILHWVKQKPGQGLEWIAYINPYNDGTKYKEKFKGKGTLTSDKSSSTAYMELSSLTSEDSAVYYCARSGGGYGNYAWFAYWGPGTLVTVST
VL: DIQMTQSPSSLSASLGERVSLTCRASQDIGSSLNWLQQEPDGTIKRLIYATSSLDSGVPKRFSGSRSGSDYSLTISSLESEDFVDYYCLQYASYPPTFGAGTKLELK
notes: Purified on protein G from hybridoma culture supernatant; POD-labelled for the Western blots
- binding result [1]: binds
- binding result [2]: binds
- binding result [3]: no binding
- binding result [4]: binds
- binding result [5]: no binding
- binding result [6]: no binding
- binding result (H-39): binds
- binding result [7]: no binding
- binding result [8]: binds
- binding result [9]: no binding
- binding result [10]: binds
